From patent US20220267451A1 come the findings set out here.

The assay deals with recombinant IGF-1R extracellular domain (ECD) (UniProt P08069). Briefly: SPR; antibody captured by immobilized anti-Fc, IGF-1R-ECD as analyte, global fit to single site model.

Turning to teprotumumab (antibody), the dissociation constant Kd (in general, the free concentration of one partner at which half of the binding sites on the other are occupied at equilibrium, for simple one-to-one binding) amounted to 2.2 nM; the koff (as a rule, the rate constant with which the complex falls apart) stood at 0.00039 s⁻¹; the on-rate constant (kon) (commonly the rate constant with which the complex forms) worked out at 180000 M⁻¹ s⁻¹.

B1: VRDN-1100 (antibody, V domains shown)
VH: QVQLVQSGAEVVKPGASVKLSCKASGYTFTSYWMHWVKQRPGQGLEWIGEINPSNGRTNYNQKFQGKATLTVDKSSSTAYMQLSSLTSEDSAVYYFARGRPDYYGSSKWYFDVWGQGTTVTVSS
VL: DVVMTQTPLSLPVSLGDPASISCRSSQSIVHSNVNTYLEWYLQKPGQSPRLLIYKVSNRFSGVPDRFSGSGAGTDFTLRISRVEAEDLGIYYCFQGSHVPPTFGGGTKLEIKR
With B1, the Kd came out at 0.57 nM, the off-rate (koff) is 5.1e-05 s⁻¹ and the kon stood at 88000 M⁻¹ s⁻¹.
